{"source": "paper PMC8118686", "about": "“Identification of a RAD52 Inhibitor Inducing Synthetic Lethality in BRCA2-Deficient Cancer Cells” (Frontiers in Pharmacology, 2021)", "molecular_target": "the molecule itself", "test": "cross-linking; called EMSA by the paper: 1 uM 6His-RAD52 in 25 mM HEPES pH 7.5, 1 mM DTT, 10 mM MgCl2, 150 mM NaCl, 0.1 mg/ml BSA, 37 °C; with or without 400 uM 50-nt ssDNA oligo and 100 uM C791-0064; 0.1% glutaraldehyde 3 min; 4-20% SDS-PAGE, Western blot with anti-Histag"}
{"protein": "Human 6His-RAD52 protein (natural protein, UniProt P43351 1-418, looked up, RAD52, human; The size of the oligomer is not measured here; heptamer is only cited) MSGTEEAILGGRDSHPAAGGGSVLCFGQCQYTAEEYQAIQKALRQRLGPEYISSRMAGGGQKVCYIEGHRVINLANEMFGYNGWAHSITQQNVDFVDLNNGKFYVGVCAFVRVQLKDGSYHEDVGYGVSEGLKSKALSLEKARKEAVTDGLKRALRSFGNALGNCILDKDYLRSLNKLPRQLPLEVDLTKAKRQDLEPSVEEARYNSCRPNMALGHPQLQQVTSPSRPSHAVIPADQDCSSRSLSSSAVESEATHQRKLRQKQLQQQFRERMEKQQVRVSTPSAEKSEAAPPAPPVTHSTPVTVSEPLLEKDFLAGVTQELIKTLEDNSEKWAVTPDAGDGVVKPSSRADPAQTSDTLALNNQMVTQNRTPHSVCHQKPQAKSGSWDLQTYSADQRTTGNWESHRKSQDMKKRKYDPS", "values": [{"measurement": "binding result", "result": "binds"}]}
